assay: soluble on expression in E. coli; label from the status in PepcDB or PDB records

Sequence	soluble on expression in E. coli
MGSDKIHHHHHHMQDNLIEIRDLRVAFNGHEVVHGISLDIRRGECLALVGESGSGKSVTAHSILRLLPPKNVSTQGSIRYDGLDLVTASDKQLRSLRGNRVAMIFQEPMSSLNPLHTVEKQIGEILVTHKGLKGKAALSRTLELLELVGIREPLLRLKAYPHQLSGGQRQRVMIAMALANEPDLLIADEPTTALDVTVQVKILELLKSLQQRLNMSLLLISHDLNLVRRIAQRVCVMREGEIVEQADCQALFDNPQHPYSRLLINAEPDGEPVPSTHSNTLLSVQDLKVWFPLGKAWFQREQQYVKAVDGVSFELLKGKTLGIVGESGSGKSTLGQAILRLVDSEGSIRFGTKELSLHSQHLMRPLRRQLQVVFQDPFGSLSPRMTVEQIIAEGLVTHKIGTPKEREQTVIRVLQEVGLDPATRHRYPHEFSGGQRQRISIARALVLEPDLILLDEPTSALDRTVQKQIVALLRDLQIRHGLTYLFISHDLAVVHALAHDLIVIKDGKVVEQGPSREIFAAPQQAYTQELLRSSGLVFA	not soluble
SCSTSGCDLEEIPLDDDDLNTIEFKILAYYTRHHVFKSTPALFSPKLLRTRSLSQRGLGNCSANESWTEVSWPCRNSQSSEKAINLGKKKSSWKAFFGVVEKEDSQSTPAKVSAQGQRTLEYQDSHSQQWSRCLSNVEQCLEHEAVDPKVISIANRVAEIVYSWPPPQATQAGGFKSKEIFVTEGLSFQLQGHVPVASSSKKDEEEQILAKIVELLKYSGDQLERKLKKDKALMGHFQDGLSYSVFKTITDQVLMGVDPRGESEVKAQGFKAALVIDVTAKLTAIDNHPMNRVLGFGTKYLKENFSPWIQQHGGWEKILGISHEEVD	soluble
MPWGWIEALLGHACPGCGGPLDLPALCGRCRAGLEAFSTGEMVYLGHYARVGPLVRALKYGRREALARALAEPLARAVAARGWRLQGVTAVPTLPHRLALRGYNPPEVLARALAKALGVPYRPVLFRRRYTPGQPTRGFKERRFLPGDLFGARVRVEGAWLLVDDVLTSGATFLRARGALLEAGAAHVYGAFLAVRDPRALGPYR	soluble
MENKMESIEQQVEVLLEQEPQLLPAAMAERLGVTEFDVVAALPQEMVAISPGEQAQTILESLVGFGPVTTIVHSFGSIFEVKAPFPKGKVARGYYNLMGREGELHGHLKLDNVKNIALVSKPFMGRESHYFGFFSECGSNIFKVYLGRDEKRELIAEQVTAFRAMQAELNQLEHHHHHH	not soluble
MDHIELRKKIGQAIRTARIRRGLVMRDLAEAGGVSTGAVGNWERGANAIAMEHLQAISQKLRIDPVALSNGSLRYLDEEEALADAEQVTDFGPAPTGPMDVEVLGVAVGGDDGDFTLNGEVSGYVRRPPGIAHLRKVFALHVLSDSMIPRYDPGELIYVGGREAVAGDHVVIEMFPDEGATVGKAYVKKLKGRTKGAIVCEQYNPPKELQFDQYAIKNMWRIIPLRELLGY	not soluble
MTKKDKKAKGPKMSTITTKSGESLKVFEDLHDFETYLKGETEDQEFDHVHCQLKYYPPFVLHDAHDDPEKIKETANSHSKKFVRHLHQHVEKHLLKDIKTAINKPELKFHDKKKQESFDRIVWNYGEETELNAKKFKVSVEVVCKHDGAMVDVDYKTEPLQPLI	soluble
MEFVLASASPARRRLLQGIGINPIVHVSHFDESQIHHDDPAQLVEALAAAKAKTVAQHRQDALILGCDSVLHVRGEILGKPASPTEAIARWQTMRGHYGLLYTGHALVDQTQNQLLVRHGVTKVYFAAIDDDTIAAYVRSGEPLQCAGCFALEGKGGLFIEKIEGCHSNVIGLSLPLLREMLAHLGYTVQTLWP	not soluble
IKDFDYNIGFNMSTTKNKVVELSDADQVLQGEGLKYGTEHFPTETRVGKPIGAFYLYRTDGIFQSMDEVNAHVNKDGQLLQPNAQPGDIRFKDLDGNGSIDAGDKEYCGSGIPTLEANLNLSFGYKGFDLSIVLGSAWNFKLYNGNKYFYEGMNSKSNMLKSTLNAWTPDNRNTDVPRAVYQDPNGNMKESDRFLENGDFVRLRQAQLGYTLPKSLMQKFYIEKLRFYVSGENLFTITGYDGIDPEFSRASVLNTGVDKLIYPFTRSFTVGAQLTF	not soluble
MNIQITFTDSVRQGTSAKGNPYTFQEGFLHLEDKPHPLQCQFFVESVIPAGSYQVPYRINVNNGRPELAFDFKAMKRA	soluble
MSLNKVLVVEDEQLLAQNLQDYLSAQGLEVRIAHDGAEGIGLAETFAPDVLVFDYRLPDMEGFEVLDAVRQNRTCHFVLITGHPTAEVCERARQLGVSHILFKPFPLAELARAVCDLLGIQREAKPGASPSEGFVERRQSRTESFPLQLYDGSWVLADRRRNRSEAMAPDDDQMLTGEEGHHHHHH	not soluble
AHHHHHHGSRMRQEERKFVELVERIMERWGYDRTGGKIYGILLLSNKPLTISELSKITGLSRSSVSVALSKLTREYLVTYTKEKKTKYFYAVPAFLEKFLKQPKEILEREIKPLKEIVVKLAEKSNEEEKARFEAILSDLLTLECVLKKIIELEEKESECLKK	not soluble
IDKITYPTRIGAVVFPHKKHQDALGECRGCHEKGPGRIDGFDKVMAHGKGCKGCHEEMKIGPVRCGDCHKGGSTH	soluble
MSLVKISNVRVRPLVLPLKQPYHWSYGIRESFAVNLIEIEADDGTVGIGECTVAPDQTGTAAILYRLAKHLVGHSPHDVAPLIARIFHQEYLGHGANIMRAANQIFSGIDMAMWDLQGKLAGLPVHQLLGGAHRKAVGYFYFLQGETAEELARDAAVGHAQGERVFYLKVGRGEKLDLEITAAVRGEIGDARLRLDANEGWSVHDAINMCRKLEKYDIEFIEQPTVSWSIPAMAHVREKVGIPIVADQAAFTLYDVYEICRQRAADMICIGPREIGGIQPMMKAAAVAEAAGLKICIHSSFTTGITTCAEHHIGLAIPNLDDGNQIMWQLVQEDIVSSPDLTPKNGWLDAFRKPGLGFQLAEDLVAEGEGRYAASREGHHHHHH	soluble
MINFDNFKKYQESFGYMAQQLCFPEKLTFHPKTFEETISKDHPAYEDLVAFRNVMMTFSLSEIKAIYTDTFDFTKKAPLYMTYNKFDTQKERGQMLAKLKVLYEMFGLEMVDNELSDYLPLMLQFLQVAEWRNDPRAEENIQLIIMIIEDGTYVMANALGEDNNPYAYVIQALRKTLKLCLTSPKGVKHHA	not soluble
MGSDKIHHHHHHMTIDNQTGLVLEGGGMRGVFTCGVLDYLMDHDIRFPYTIGVSAGACNGLSYMSRQRGRAKYSNIDLLEKYHYIGLKHLLKKRNILDFDLLFTEFPEHILPYDYQAYFDSPERYVMVTTNCLTGEADYFEEKKDKNRVIDIVRASSSLPFVCPIAYVDGIPMLDGGIVDSIPLQRAIHDGYRNNVVVLTRNRGYRKENKDIRIPPFVYRKYPKMREALSRRCAAYNAQLEMVERMEEEGDILVIRPQKPVVVDRIERDIQKLTDLYEEGYECAKRQFEVL	not soluble
MSLENWRFIEANSDYMVSDHGRILSFKGKSKLIISSSITAKGYEYVAIRQKGIYVGYSVHRLVATAFIPNPKRLPQVNHLDGNKLNNHVANLEWCDAYDNVMHAIRTGLRPSSPALSPVPCATTDEAGNILQAYPSMNALVKGEQMNPKQRNWLVLHLLHPERLKQSAMKKKSRAERSGSEECFLIAPEIPVLTVKADSIGEFEAGNPLGIGKSSNSVGEFEAGNPLGIGKSSNSVEEFEAGNPLGIGKSSNSVGEFKAGNVCVQPVSFSFVSSPFPLISLFAPIHHSVTQHYYRRLSPEESAIFGFNTYILPRERGQRKEFLQEGHHHHHH	not soluble
MGGSALNQGVLEGDDAPGQSLYERLSQRMLDISGDRGVLKDVIREGAGDLVAPDASVLVKYYGYLEHLDRPFDSNYFRKTPRLMKLGEDITLWGMELGLLSMQRGELARCFVLGKLLDSQGPSLHLYLRAS	not soluble
MAEASIEKTQILQKYLELDQRGRIIAEYVWIDGTGNLRSKGRTLKKRITSIDQLPEWNFDGSSTNQAPGHDSDIYLKPVAYYPDPFRRGDNIVVLAACYNNDGTPNKFNHRHEAAKLFAAHKDEEIWFGLEQEYTLFDMYDDVYGWPKGGYPAPQGPYYCGVGAGKVYARDMIEAHYRACLYAGLEISGINAEVMPSQWEFQVGPCTGIDMGDQLWMARYFLHRVAEEFGIKISFHPKPLKGDWNGAGCHANVSTKEMRQPGGTKYIEQAIEKLSKRHAEHIKLYGSDNDMRLTGRHETASMTAFSSGVANRGSSIRIPRSVAKEGYGYFEDRRPASNIDPYLVTGIMCETVCGAIDNADMTKEFERESS	soluble
